From the Human Domainome abundance scans (Beltran et al. 2025)

B1: Transcriptional repressor p66-beta, residues 415 to 455; numbered along this chain, Q8WXI9 (parent)
chain: VEPFVCAQCRTDFTPHWKQEKNGKILCEQCMTSNQKKALKA

Variants of: B1
Experiment: abundance fitness (aPCA) (normalised: wild type 0, dead -1); higher = more abundant; growth selection in yeast, the domain comes from the species named
Conditions: Homo sapiens

Abundance fitness: each site, then its substitutions
A7: W -0.223 | G 0.368 | F 0.068 | I 0.078 | E 0.188 | D 0.27 | P -0.091 | T 0.208 | R 0.075 | N 0.121
A38: H -0.32 | Y -0.228 | W -0.398 | Q -0.541 | P -0.509
I25: P 0.069 | W -0.287 | E -0.118 | M -0.081 | T -0.054 | V -0.407 | Y -0.307 | Q -0.029
A41: R -0.071 | W 0.002 | L 0.211 | M -0.247
K40: N 0.079 | C -0.144 | P 0.229 | E 0.084 | M -0.066 | Q -0.218 | W -0.393
Q19: R -0.029 | P 0.109 | D 0.212 | C 0.103 | V 0.159 | M 0.026
C9: T -0.203 | A -0.417 | S -0.733 | E -0.235 | Y -0.937 | N -0.717 | D -0.271 | M -0.716
P3: R 0.121 | A 0.313 | H 0.215 | E 0.213 | S 0.398 | D -0.521 | I 0.284 | W -0.243 | L 0.095
K24: A -0.079 | M -0.082 | L -0.106 | R 0.028 | G -0.02 | V -0.148 | H 0.013 | T -0.174 | D -0.166
N22: C 0.289 | T 0.079 | K 0.066 | A 0.05 | W 0.137 | P 0.027 | D 0.011 | Q 0.106 | R 0.208
G23: P -0.016 | N 0.303 | C -0.137 | W -0.392 | E 0.189 | Q 0.335 | S -0.104 | M 0.422 | L 0.142 | A 0.148 | D 0.343
K36: V -0.277 | P -0.242 | T -0.024 | L -0.329 | Q 0.105 | R -0.168 | W -0.256 | D -0.239 | C -0.275 | E -0.09
E20: Q -0.303 | D -0.645 | V -0.013 | K -0.468 | F -0.696 | L -0.254 | W -0.362 | I 0.391 | S -0.115 | C 0.158
L26: M 0.358 | E -0.194 | N -0.411 | S -0.077 | I -0.004 | W -0.113 | G -0.304 | H 0.12 | D -0.295 | Q -0.075 | C -0.075 | T -0.39
T32: I -0.033 | E -0.186 | S -0.312 | P -0.056 | K 0.045 | R -0.145 | F -0.143 | G -0.121
F13: W -0.213 | V 0.337 | G -0.116 | L -0.179 | H -0.244 | M 0.192
K37: G -0.015 | P 0.1 | T -0.027 | H -0.176 | Q 0.168 | M 0.095 | E 0.142 | V -0.035 | R -0.074 | L -0.036
R10: C 0.957 | F 0.608 | H 1.1 | D 0.014 | Y 0.518 | S 0.717 | N -0.022 | K 0.409
K21: V -0.026 | P 0.264 | M -0.054 | S -0.104 | R 0.129 | W 0.037 | Q 0.235 | A 0.008
N34: F -0.206 | A -0.076 | P -0.257 | G -0.156 | V -0.223 | W -0.67 | I -0.088 | R -0.179 | Y -0.287
